{"source": "paper PMC8749428", "key": {"[1]": {"target": "PltC (untagged, His tag removed)", "experiment": "crystal structure"}, "[2]": {"target": "PltA-CdtB-His6 (Salmonella enterica serovar Typhi) (UniProt Q8Z6A7)", "experiment": "pull-down"}, "PltB-Strep": {"target": "PltB-Strep", "experiment": "SEC"}, "PltC-His6": {"target": "PltC-His6", "experiment": "SEC"}}}
{"substance": "PltC (untagged, His tag removed) (natural protein)", "values": [{"measurement": "stoichiometry N", "setting": "[1]", "value": 5}, {"measurement": "fold copurified relative to PltB", "setting": "[2]", "value": 2, "unit": "fold"}]}
{"substance": "PltB-Strep (natural protein)", "values": [{"measurement": "stoichiometry N", "setting": "PltB-Strep", "value": 5}]}
{"substance": "PltC-His6 (natural protein)", "values": [{"measurement": "stoichiometry N", "setting": "PltC-His6", "value": 5}]}
